B1: Serine/threonine-protein kinase A-Raf, residues 21 to 89; numbered along this chain, P10398 (parent)
chain: VKVYLPNKQRTVVTVRDGMSVYDSLDKALKVRGLNQDCCVVYRLIKGRKTVTAWDTAIAPLDGEELIVE
B2: Formin-binding protein 4, residues 593 to 636; numbered along this chain, Q8N3X1 (parent)
chain: EINATPKGWSCHWDRDHRRYFYVNEQSGESQWEFPDGEEEEEES

Variants of: B1
Experiment: abundance fitness (aPCA) (normalised: wild type 0, dead -1); higher = more abundant; growth selection in yeast, the domain comes from the species named
Conditions: Homo sapiens

Abundance fitness, by site and new letter:
L61: E -0.25, M 0.017, S -0.156, A -0.168, R -0.108, T -0.23, H -0.312, P -0.631, C -0.367, K -0.142, D -0.365, Q -0.088, V -0.112, N -0.371, W -0.297, I -0.206, G -0.176
I67: F 0.252
E69: A -0.497, I -0.81, V -0.43, S -0.463, F -0.884, L -0.889, D -0.248, K -0.6, R -0.635, P -0.693, Q -0.6, Y -0.809, M -0.682, N -0.777
E64: W -0.215, A -0.206, L -0.01, F -0.867, T -0.006, C -0.571, S -0.112, M -0.085, V -0.259, N -0.026, K -0.295, H -0.339, G -0.25
D62: I -0.015, T -0.111, P -0.095, L -0.078, C 0.13, A 0.004, Y -0.311, F -0.608, S 0.036, R -0.049, M -0.062, E -0.128, G -0.047, N -0.051, H -0.073, K -0.097
V68: I -0.127, A -0.391
G63: M -0.269, H -0.63, C -0.055, D -0.187, Q -0.466, E -0.486, V -0.097, W -0.78, P -0.533, K -0.722, T -0.128, A -0.142, N -0.265, F -0.279, S -0.107, R -0.799, Y -0.376
E65: L -0.349, A -0.044, K -0.122, C -0.122, W -0.515, Y -0.305, I -0.088, M -0.34, D -0.136, F -0.607, S -0.124, T -0.01, R -0.385, G -0.294, Q -0.184, V -0.077, P -0.26
P60: V -0.04, L 0.001, M 0.084, Y 0.043, S 0.098, K 0.024, E 0.064, T 0.027, R -0.067, C -0.221, Q 0.121, W -0.199, F -0.036, H -0.06, A 0.147, D 0.138

Variants of: B2
Experiment: as above
Conditions: Homo sapiens

Abundance fitness, by site and new letter:
H17: V -0.208, K 0.207, S -0.01, W -0.486, L 0.007, M -0.235, R 0.046, D -0.201, P -1, A 0.037, G -0.274, E 0.088, Q 0.186, Y -0.156, F -0.025
I2: S 0.142, E -0.173, Y -0.02, V -0.204, W -0.283, A -0.518, P -0.094, L -0.208, R -0.006
D14: A -0.514, Q -0.667, G -0.963, K -0.928, P -1.12, I -0.799, F -0.75, S -0.141, R -0.843, W -1.4, H -0.289, C -0.341, M -0.682, T -0.747, V -0.811, E -0.685, Y -1.24
H12: Q -0.432, G -0.379, D -0.646, R -0.17, C -0.302, Y -0.227, N -0.287, L -0.306, P -0.822, M -0.498, W -0.637, K -0.179, T -0.407, V -0.21, S -0.453, E -0.049
N3: L -0.239, C -0.304, H -0.128, G -0.098, D 0.157, M 0.323, Q 0.041, Y -0.062, A -0.177, R -0.169, V -0.093, S -0.072, E 0.185, T -0.355
P6: S -0.412, G -0.587
R18: H -0.11, W -0.571, T -0.344, G 0.063, P -0.635, V -0.421, M -0.124, A 0.012, L 0.016, C -0.183
A4: S -0.306, N 0.2, P 0.086, Q -0.122, M 0.036, T -0.032, E 0.081, K -0.008, L 0.019, V -0.132, R -0.01, G 0.033
T5: K 0.67, G -0.393, H -0.534, V 0.065, C 0.052, M -0.054, S -0.81, R -0.345, A -0.387, W -0.19, D -0.463, F -0.306, Q -0.358, L 0.213
C11: K -0.025, V -0.257, G 0.037
D16: Q -0.075, C -0.225, G -0.239, A -0.234, S -0.24, F -0.362, L -0.447, R -0.274, V -0.253, H -0.168, W -0.218, T -0.064, K -0.169
W9: L -0.719, Q -0.498, Y -0.534, K -0.619, E -0.661, P -0.512, R -0.817, S -0.368, C -0.56, A -0.568, M -0.591, D -0.742, V -0.629, G -0.423
R19: C -0.207, E -0.406
W13: S -0.662, C -0.497, Q -0.546, R -0.738, M -0.542, E -0.456, L -0.46, A -0.571, K -0.545, P -0.404, I -0.986, G -0.544, Y -0.189, H -0.499, F -0.095, D -0.71
G8: K -0.408, M -0.605, S -0.623, C -0.471, E -0.438, T -0.843, I -0.496, V -0.664, N -0.373, L -0.795, Q -0.612, R -0.621, A -0.707
R15: M -0.18, L -0.167, T -0.162, C -0.204, P -0.118, I 0.373, G -0.032, Y -0.302, K 0.14, N -0.05, F -0.188, W -0.315, A -0.059, Q 0.139, H 0.116, E 0.123, D -0.007, S 0.019
E1: W -0.061, D -0.154, M -0.019, R -0.186, V -0.499, G -0.433, K 0.036, A -0.14, N -0.304
K7: L -0.299, F -0.303, T -0.456, A -0.079, S -0.214, R -0.074, H 0.125, D -0.123, V -0.065, G -0.577
S10: K -0.212, D -0.465, Y -0.521, P -0.91, V -0.186, H -0.502, Q -0.183, R -0.265, T -0.288, G -0.528, L -0.345, M -0.389, W -1.06, E -0.381
